{
  "source": "paper PMC4248295",
  "binders": {"B1": {"name": "(GC)6 (12 bp) (dsDNA)", "DNA 1": "GCGCGCGCGCGC", "DNA 2": "GCGCGCGCGCGC"}},
  "biological_target": "T1, MSL2 CXC domain (Drosophila melanogaster, UniProt P50534 520-570, C560G)",
  "T1 sequence": "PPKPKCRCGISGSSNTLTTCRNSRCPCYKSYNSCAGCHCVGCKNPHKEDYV",
  "assay": "crystal structure",
  "data": [
    {"binder": "B1", "values": [
      {"measurement": "binding result", "value": "binds"}
    ]}
  ]
}
